# Measured values taken from patent US20100239590A1.
# Molecular target: human IL-17RC on HS68 foreskin fibroblast cells (human) (UniProt Q8NAC3)
# Test: cell-based or functional assay
# Chain of UniProt Q8NAC3 (Q8NAC3 21-791): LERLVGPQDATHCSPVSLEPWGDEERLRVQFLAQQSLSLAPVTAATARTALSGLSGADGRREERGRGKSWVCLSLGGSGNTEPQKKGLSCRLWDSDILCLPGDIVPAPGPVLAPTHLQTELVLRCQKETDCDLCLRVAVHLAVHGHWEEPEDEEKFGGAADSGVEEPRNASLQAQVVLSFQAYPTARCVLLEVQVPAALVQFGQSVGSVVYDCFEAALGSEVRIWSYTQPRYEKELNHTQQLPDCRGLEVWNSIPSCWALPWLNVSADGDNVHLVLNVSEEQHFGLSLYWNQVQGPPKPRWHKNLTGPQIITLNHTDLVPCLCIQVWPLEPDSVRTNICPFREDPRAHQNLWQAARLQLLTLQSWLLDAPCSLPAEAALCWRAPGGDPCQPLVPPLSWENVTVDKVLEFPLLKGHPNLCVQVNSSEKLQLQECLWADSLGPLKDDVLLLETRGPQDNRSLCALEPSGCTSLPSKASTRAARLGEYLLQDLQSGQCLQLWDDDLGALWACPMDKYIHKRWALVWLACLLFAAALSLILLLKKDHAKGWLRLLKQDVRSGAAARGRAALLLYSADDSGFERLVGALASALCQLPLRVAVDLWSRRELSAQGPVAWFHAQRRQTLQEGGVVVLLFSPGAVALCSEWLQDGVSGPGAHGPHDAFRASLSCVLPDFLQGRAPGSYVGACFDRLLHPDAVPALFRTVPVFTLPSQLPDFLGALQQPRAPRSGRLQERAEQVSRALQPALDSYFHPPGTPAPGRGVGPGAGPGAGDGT
substance,measurement,value
human IL-17A (from UniProt Q16552 24-155) (ligand),"IL-6 induction in HS68 cells, EC50",5 to 10 ng/mL
